Source: the supplement of paper PMC11865577

Experiments:
Test in all cases: pull-down binding Z-score (relative to library population); higher = stronger binding
Conditions in all cases: RNA library: Library-2
TO-N3 (biotin conjugate) = test system: TO-N3 (biotin conjugate)
Outline: (§1)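 Heat-folded RNA library (1 μg, Cy5 or Cy3 end label, phosphate/NaCl/KCl buffer) was captured for 60 min at 25 °C on streptavidin beads displaying 100 pmol of biotin-conjugated small molecule, then washed three times. The bound fraction, eluted in hot SDS, was hybridised to a DNA barcode microarray at 55.5 °C for 20 h. Z-scores for binding were taken against the library mean and standard deviation after beads-only subtraction and trimmed averaging of replicate barcoded probes.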

[1] = test system: TO-3-N3 (biotin conjugate)
Outline: as §1

[2] = test system: TO-N3-2 (biotin conjugate)
Outline: as §1

[3] = test system: TO-3-N3-2 (biotin conjugate)
Outline: as §1

AUGCUUGGAACAGGAAGAGAAUCAGCAACUGUGUUGCUGAUUAUUCUGUCCUAUAUAAUUCCGCAU [DMSMaPseq_invitro_SARS-CoV-2_Motif_399]
pull-down binding Z-score (TO-N3 (biotin conjugate)): -0.459 | pull-down binding Z-score [1]: -0.314 | pull-down binding Z-score [2]: -0.139 | pull-down binding Z-score [3]: -0.327

UGUAAAUCACAUAAACCACCCAUUAGUUUUCCAUUGUGUGCUAAUGGACAAGUUUUUGGUUUAUA
pull-down binding Z-score (TO-N3 (biotin conjugate)): -0.491 | pull-down binding Z-score [1]: -0.529 | pull-down binding Z-score [2]: -0.995 | pull-down binding Z-score [3]: 0.371

CAAGGGUACACACCACUG
pull-down binding Z-score (TO-N3 (biotin conjugate)): 0.81 | pull-down binding Z-score [1]: 0.824 | pull-down binding Z-score [2]: 0.0749 | pull-down binding Z-score [3]: -0.131

UUAAAAUAUGACUUCACGGAAGAGAGGUUAAAACUCUUUGACCGUUAUUUUAA [DMSMaPseq_invitro_SARS-CoV-2_Motif_258]
pull-down binding Z-score (TO-N3 (biotin conjugate)): -0.184 | pull-down binding Z-score [1]: 0.0656 | pull-down binding Z-score [2]: -0.898 | pull-down binding Z-score [3]: 0.159

GCUUUGAUAUGGAACGUUAAAGAUUUCAUGUCAUUGU
pull-down binding Z-score (TO-N3 (biotin conjugate)): -0.204 | pull-down binding Z-score [1]: -0.179 | pull-down binding Z-score [2]: -0.395 | pull-down binding Z-score [3]: -0.217

AGUCAUAGUCAGUUAGGUGGUUUACAUCUACUGAUUGGACU
pull-down binding Z-score (TO-N3 (biotin conjugate)): -1.35 | pull-down binding Z-score [1]: -1.18 | pull-down binding Z-score [2]: -0.775 | pull-down binding Z-score [3]: -0.281

UCUUUAUUUGACAUGAGUAAAUUUCCCCUUAAAUUAAGGGGUACUGCUGUUAUGUCUUUAAAAGA [SHAPE_invitro_SARS-CoV-2_Motif_387]
pull-down binding Z-score (TO-N3 (biotin conjugate)): -0.894 | pull-down binding Z-score [1]: -0.896 | pull-down binding Z-score [2]: -0.575 | pull-down binding Z-score [3]: 0.0957

GUCUAAUCUCAAACCUUUUGAGAGAGAU
pull-down binding Z-score (TO-N3 (biotin conjugate)): -1.19 | pull-down binding Z-score [1]: -0.801 | pull-down binding Z-score [2]: -1.07 | pull-down binding Z-score [3]: -0.695

CUAACAAUCUAGUUGUAAUGGCCUACAUUACAGGUGGUGUUGUUCAG [SHAPE_invivo_SARS-CoV-2_Motif_39]
pull-down binding Z-score (TO-N3 (biotin conjugate)): -0.379 | pull-down binding Z-score [1]: -0.352 | pull-down binding Z-score [2]: -0.761 | pull-down binding Z-score [3]: -0.607

GGAUCCCGACUGGCGAGAGCCAGGUAACGAAUGGAUCC [MG-aptamer]
pull-down binding Z-score (TO-N3 (biotin conjugate)): 0.277 | pull-down binding Z-score [1]: -0.00379 | pull-down binding Z-score [2]: 2.4 | pull-down binding Z-score [3]: -0.524

GUCAGUGAAACACAGGGAACAGAGAAACUGAC [IAV_invivo_PB2_1_Motif_24+IAV_invivo_PB2_1_Motif_24]
pull-down binding Z-score (TO-N3 (biotin conjugate)): -0.399 | pull-down binding Z-score [1]: -0.496 | pull-down binding Z-score [2]: 0.355 | pull-down binding Z-score [3]: 0.282

GUUCGGAUGCUCGAACUGCACCUCAUGGUCAUGUUAUGGUUGAGCUGGUAGCAGAACUCGAAGGCAUUCAGUAC [DMSMaPseq_invitro_SARS-CoV-2_Motif_11]
pull-down binding Z-score (TO-N3 (biotin conjugate)): 0.002 | pull-down binding Z-score [1]: -0.665 | pull-down binding Z-score [2]: 1.96 | pull-down binding Z-score [3]: -0.307

ACAUUUUAUCUUACUAAUGAUGU [SHAPE_invivo_SARS-CoV-2_Motif_191]
pull-down binding Z-score (TO-N3 (biotin conjugate)): -0.428 | pull-down binding Z-score [1]: -0.182 | pull-down binding Z-score [2]: -1.3 | pull-down binding Z-score [3]: -0.249

CUUAGGGACAACCUUGAACCUGGG [IAV_invivo_PA_3_Motif_29+IAV_invivo_PA_3_Motif_29]
pull-down binding Z-score (TO-N3 (biotin conjugate)): -0.557 | pull-down binding Z-score [1]: -0.637 | pull-down binding Z-score [2]: 0.0467 | pull-down binding Z-score [3]: -0.446

GUGGCCCUGAUGGCUAC
pull-down binding Z-score (TO-N3 (biotin conjugate)): -0.412 | pull-down binding Z-score [1]: -0.362 | pull-down binding Z-score [2]: -0.0973 | pull-down binding Z-score [3]: -0.622

GCCAUUGCCGGU [IAV_invivo_HA_4_Motif_15+IAV_invivo_HA_4_Motif_15]
pull-down binding Z-score (TO-N3 (biotin conjugate)): -0.593 | pull-down binding Z-score [1]: -0.443 | pull-down binding Z-score [2]: -0.0811 | pull-down binding Z-score [3]: -0.49

GGUGUGGAUGGCAUGCC [IAV_invivo_NP_5_Motif_17+IAV_invivo_NP_5_Motif_17]
pull-down binding Z-score (TO-N3 (biotin conjugate)): -0.121 | pull-down binding Z-score [1]: -0.0853 | pull-down binding Z-score [2]: 0.0568 | pull-down binding Z-score [3]: -0.0718

AGUUGUGAUCAACU
pull-down binding Z-score (TO-N3 (biotin conjugate)): -1.06 | pull-down binding Z-score [1]: -0.744 | pull-down binding Z-score [2]: -1.24 | pull-down binding Z-score [3]: -0.728

CUUCUUGCAUGUGACUUAUGUCCCUGCACAAGAAAAG [SHAPE_invitro_SARS-CoV-2_Motif_449]
pull-down binding Z-score (TO-N3 (biotin conjugate)): -0.309 | pull-down binding Z-score [1]: -0.329 | pull-down binding Z-score [2]: -0.177 | pull-down binding Z-score [3]: -0.257

UACUAAUAUGUUUACACCACUAAUUCAACCUAUUGGUGCUUUGGACAUAUCAGCAUCUAUAGUAGCUGGUGGUAUUGUAGCUAUCGUAGUA [SHAPE_invivo_SARS-CoV-2_Motif_188]
pull-down binding Z-score (TO-N3 (biotin conjugate)): 0.303 | pull-down binding Z-score [1]: 0.0327 | pull-down binding Z-score [2]: 0.354 | pull-down binding Z-score [3]: 0.253

GUAAGAGAAUUCCUUAC
pull-down binding Z-score (TO-N3 (biotin conjugate)): -0.531 | pull-down binding Z-score [1]: -0.366 | pull-down binding Z-score [2]: -0.727 | pull-down binding Z-score [3]: -0.0559

GAAAUACUUGUCACAUACAAUUGUUGUGAUGAUGAUUAUUUC
pull-down binding Z-score (TO-N3 (biotin conjugate)): -1.39 | pull-down binding Z-score [1]: -1.15 | pull-down binding Z-score [2]: -1.14 | pull-down binding Z-score [3]: -0.399

CAGUUGAAACAUCAAAUUCGUUUGAUGUACUG
pull-down binding Z-score (TO-N3 (biotin conjugate)): -1.04 | pull-down binding Z-score [1]: -0.685 | pull-down binding Z-score [2]: -1.22 | pull-down binding Z-score [3]: -0.516

GAGAGUGUUCAGACAUUCUU [SHAPE_invivo_SARS-CoV-2_Motif_44]
pull-down binding Z-score (TO-N3 (biotin conjugate)): 0.718 | pull-down binding Z-score [1]: 0.913 | pull-down binding Z-score [2]: -0.51 | pull-down binding Z-score [3]: -0.0995

GUUAUGUUGAUACACCUAAU [DMSMaPseq_invitro_SARS-CoV-2_Motif_328]
pull-down binding Z-score (TO-N3 (biotin conjugate)): -0.585 | pull-down binding Z-score [1]: -0.598 | pull-down binding Z-score [2]: -0.329 | pull-down binding Z-score [3]: -0.132

UGUUGUAACAACA
pull-down binding Z-score (TO-N3 (biotin conjugate)): -0.992 | pull-down binding Z-score [1]: -0.671 | pull-down binding Z-score [2]: -1.35 | pull-down binding Z-score [3]: -0.596

GAAGUUACAACAACUCUGGAAGAAACUAAGUUCCUCACAGAAAACUUGUUACUUU [DMSMaPseq_invitro_SARS-CoV-2_Motif_72]
pull-down binding Z-score (TO-N3 (biotin conjugate)): -0.304 | pull-down binding Z-score [1]: -0.508 | pull-down binding Z-score [2]: 0.97 | pull-down binding Z-score [3]: -0.321

CUUCUGCUGCUCUUCAACCUGAAGAAGAGCAAGAAGAAG
pull-down binding Z-score (TO-N3 (biotin conjugate)): -0.368 | pull-down binding Z-score [1]: -0.349 | pull-down binding Z-score [2]: -0.79 | pull-down binding Z-score [3]: -0.22

GACUCUGAGCCAGUGCUCAAAGGAGUC
pull-down binding Z-score (TO-N3 (biotin conjugate)): -0.677 | pull-down binding Z-score [1]: -0.523 | pull-down binding Z-score [2]: -0.0814 | pull-down binding Z-score [3]: -0.434

CUGCACUGUUAGCGGGUACAAUCACUUCUGGUUGGACCUUUGGUGCAG [SHAPE_invitro_SARS-CoV-2_Motif_437]
pull-down binding Z-score (TO-N3 (biotin conjugate)): -0.574 | pull-down binding Z-score [1]: -0.428 | pull-down binding Z-score [2]: -0.738 | pull-down binding Z-score [3]: -0.189

AAAUUUUUGGCUUUGUGUGCUGACUCUAUCAUUAUUGGUGGAGCUAAACUUAAAGCCUUGAAUUU [SHAPE_invivo_SARS-CoV-2_Motif_45]
pull-down binding Z-score (TO-N3 (biotin conjugate)): -0.00867 | pull-down binding Z-score [1]: 0.0535 | pull-down binding Z-score [2]: -0.994 | pull-down binding Z-score [3]: -0.123

CCAGUACCAGAGGUGAAAAUACUCAAUAAUUUGGGUGUGGACAUUGCUGCUAAUACUGUG
pull-down binding Z-score (TO-N3 (biotin conjugate)): 1.18 | pull-down binding Z-score [1]: 1.32 | pull-down binding Z-score [2]: -0.0208 | pull-down binding Z-score [3]: 0.266

GCGCUGCCAGAAACUGGCUUGAGCGC [bulge-UUG]
pull-down binding Z-score (TO-N3 (biotin conjugate)): 0.932 | pull-down binding Z-score [1]: 1.04 | pull-down binding Z-score [2]: 0.434 | pull-down binding Z-score [3]: 0.543
